{
  "source": "patent US10370653B2",
  "about": "“Micro-screening apparatus, process, and products” (priority 2015, dated 2019)",
  "key": {"[1]": {"test_system": "CC1(C)C2=C(Cl)C(=O)C(Cl)=CC2=Nc2ccc(OP(=O)(O)O)cc21", "experiment": "Michaelis-Menten kinetics of purified AP with DDAOP", "assay_type": "biochemical, E. coli", "settings": "other: substrate DDAOP, purified protein, pH 8.0", "text": "(§1) Preparation of alkaline phosphatase protein constructs.\n(§2) Analysis of alkaline phosphate activity.\n(§3) Alkaline phosphatase was used as a model system."}, "[2]": {"test_system": "CC1(C)C2=C(Cl)C(=O)C(Cl)=CC2=Nc2ccc(OP(=O)(O)O)cc21", "experiment": "Michaelis-Menten kinetics of yeast-displayed AP with DDAOP", "assay_type": "biochemical, E. coli", "settings": "other: substrate DDAOP, yeast display, pH 8.0", "text": "as §1, §2\nFor kinetic measurements on the μSCALE platform, a series of images were acquired at set intervals with 600/60 nm excitation/655 nm long pass emission filters to generate single-cell reaction time courses for each cavity in the array. […] Error bars reflect the standard deviation across all cavities in each spot and were used to fit a calibration line using weighted least squares. In both cases, the linear regime of each kinetic time series was used to estimate reaction rates.\nas §3"}, "[3]": {"target": "fluorescently labeled phosphate-binding protein (PBP) from E. coli (Life Technologies, PV4406) (Escherichia coli, UniProt P0AG82, A222C)", "sequence (P0AG82 26-346 A222C)": "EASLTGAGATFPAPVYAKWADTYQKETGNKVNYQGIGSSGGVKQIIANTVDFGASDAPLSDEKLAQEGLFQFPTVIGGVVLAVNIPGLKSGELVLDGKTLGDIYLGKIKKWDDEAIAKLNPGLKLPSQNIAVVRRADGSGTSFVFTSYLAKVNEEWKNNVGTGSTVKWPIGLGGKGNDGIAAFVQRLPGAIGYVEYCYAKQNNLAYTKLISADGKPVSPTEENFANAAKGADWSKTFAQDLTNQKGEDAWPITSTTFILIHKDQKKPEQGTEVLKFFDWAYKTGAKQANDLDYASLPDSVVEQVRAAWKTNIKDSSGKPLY", "settings": "inorganic phosphate ([Pi]); two-state binding isotherm; TrisHCl pH 7.6", "experimental": "Briefly, 100 μL of each sample was mixed with 100 μL of 1 μM PBP in Phosphate Sensor Detection Buffer (20 mM TrisHCl pH 7.6, 0.05% Triton X-100), and fluorescence of the mixture was immediately read out at an excitation/emission of 430/450 nm on a Biotek SYNERGY™ H4 plate reader spectrophotometer. When measuring phosphate content in the AP Reaction Buffer, the buffer was diluted 1:20 in water prior to incubation with the sensor in order to minimize interference from the concentrated MOPS and salt solutions on the PBP binding thermodynamics. PBP stocks were stored as 10 μM aliquots in Phosphate Sensor Storage Buffer (10 mM TrisHCl pH 7.6, 50 mM NaCl) at −80° C. and individually thawed prior to use. […] Error bars reflect the standard deviation over three measurements."}},
  "data": [
    {"compound": "E. coli alkaline phosphatase (AP), wild type (WT), GENBANK Accession Number M13345, purified protein (Escherichia coli K-12)", "values": [
      {"measurement": "Km", "setting": "[1]; 50 pM", "value": "4.1 ± 0.1", "unit": "µM"},
      {"measurement": "kcat", "setting": "[1]; 50 pM", "value": "15.7 ± 0.2", "unit": "s⁻¹"},
      {"measurement": "kcat/Km", "setting": "[1]; 50 pM", "value": "(3.8 +/− 0.1) × 10^6 M^-1 s^-1"}
    ]},
    {"compound": "E. coli alkaline phosphatase (AP) variant R166S, purified protein (Escherichia coli K-12; R188S)", "values": [
      {"measurement": "Km", "setting": "[1]", "value": "51 ± 4", "unit": "µM"},
      {"measurement": "kcat", "setting": "[1]", "value": "0.7 ± 0.2", "unit": "s⁻¹"},
      {"measurement": "kcat/Km", "setting": "[1]", "value": "(1.4 +/− 0.4) × 10^4 M^-1 s^-1"}
    ]},
    {"compound": "E. coli alkaline phosphatase (AP) variant R166S, yeast-displayed (Escherichia coli K-12; R188S)", "values": [
      {"measurement": "Km", "setting": "[2]", "value": "55 ± 7", "unit": "µM"}
    ]},
    {"compound": "E. coli alkaline phosphatase (AP), wild type (WT), GENBANK Accession Number M13345, yeast-displayed (Escherichia coli K-12)", "values": [
      {"measurement": "Km", "setting": "[2]", "value": "4.3 ± 0.4", "unit": "µM"}
    ]},
    {"compound": "O=P(O)(O)O", "note": "[inorganic phosphate]", "values": [
      {"measurement": "Kd", "setting": "[3]", "value": 940, "unit": "nM"}
    ]}
  ]
}
